{"source": "paper doi:10.1101/2022.03.18.484894", "about": "“Molecular determinants of the Bacillus subtilis chromosome origin basal unwinding system”", "binders": {"B1": {"name": "B. subtilis WT BUS scaffold (EMSA substrate) (dsDNA)", "DNA 1": "ACTTATCCACAAATCCACAGGCCC", "DNA 2": "TACTATTACTTCTACTA", "DNA 3": "TAGTAGAAGTAATAGTAGGGCCTGTGGATTTGTGGATAAGT"}, "B2": {"name": "BUS scaffold with phosphorothioate backbone (EMSA) (XNA)", "DNA 1": "ACTTATCCACAAATCCACAGGCC", "DNA 2": "CTACTATTACTTCTACTA", "DNA 3": "TAGTAGAAGTAATAGTAGGGCCTGTGGATTTGTGGATAAGT", "modifications": "phosphorothioate linkages in the DnaA-trio region; exact positions of the EMSA version not stated"}}, "key": {"DnaA R264A": {"target": "DnaA R264A (Bacillus subtilis, UniProt P05648 1-446, R264A)", "assay": "EMSA; smaller complex that enters the gel; EMSA: 13 nM scaffold, 250-1000 nM DnaA, 10 mM HEPES-KOH pH 8, 100 mM K-glutamate, 1 mM Mg acetate, 30% glycerol, 10% DMSO, 1 mM ADP or ATP, 20 C, 3 h; 6% PAGE with 5 mM MgCl2", "conditions": "protein: recombinant; tags: none after cleavage of His14-SUMO; label: 5'-Cy3 on strand 1 (oHM752); 5'-Cy5 on strand 2 (oHM590); three-strand duplex: strands 1 and 2 adjacent (nick) on 41-nt strand 3, blunt"}, "DnaA [1]": {"target": "T1, DnaA (Bacillus subtilis, UniProt P05648 1-446)", "assay": "EMSA; ATP; large complex near the well plus strand separation; EMSA: 13 nM scaffold, 250-1000 nM DnaA, 10 mM HEPES-KOH pH 8, 100 mM K-glutamate, 1 mM Mg acetate, 30% glycerol, 10% DMSO, 1 mM ADP or ATP, 20 C, 3 h; 6% PAGE with 5 mM MgCl2", "conditions": "protein: recombinant; tags: none after cleavage of His14-SUMO; label: 5'-Cy3 on strand 1 (oHM752); 5'-Cy5 on strand 2 (oHM590); three-strand duplex: strands 1 and 2 adjacent (nick) on 41-nt strand 3, blunt"}, "DnaA [2]": {"target": "T1, DnaA", "assay": "EMSA; ATP; large complexes enter the gel poorly; EMSA: 13 nM scaffold, 250-1000 nM DnaA, 10 mM HEPES-KOH pH 8, 100 mM K-glutamate, 1 mM Mg acetate, 30% glycerol, 10% DMSO, 1 mM ADP or ATP, 20 C, 3 h; 6% PAGE with 5 mM MgCl2", "conditions": "protein: recombinant; tags: none after cleavage of His14-SUMO; label: Cy3 on annealed strand; Cy5 on separated strand; three-strand scaffold"}}, "data": [{"binder": "B1", "values": [{"measurement": "binding result", "setting": "DnaA R264A", "result": "binds"}, {"measurement": "binding result", "setting": "DnaA [1]", "result": "binds"}]}, {"binder": "B2", "values": [{"measurement": "binding result", "setting": "DnaA [2]", "result": "binds"}]}]}
